Laboratory results: the supplement of paper PMC10567573

B1: FBXO34 (parent)
chain: PRYREDPCKQCKKKYVKGDVSLCR

Variants of: B1
Experiment: protein stability index of a GFP-peptide fusion (GPS, HEK-293T) (PSI 1-6); higher = more stable
Conditions: c terminus: a fixed tail appended
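Note: lentivirally expressed fusions sorted by FACS into six bins by GFP to DsRed ratio, PSI derived from sequencing read proportions per bin multiplied by bin number.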

Variant | protein stability index
PRYPEDPCKQCKKKYVKGDVSLCR | 2.72
PRYNEDPCKQCKKKYVKGDVSLCR | 2.99
PRYFEDPCKQCKKKYVKGDVSLCR | 2.69
PRYHEDPCKQCKKKYVKGDVSLCR | 2.96
PRYDEDPCKQCKKKYVKGDVSLCR | 3.17
PRYEEDPCKQCKKKYVKGDVSLCR | 3.3
PRYWEDPCKQCKKKYVKGDVSLCR | 2.01
PRYGEDPCKQCKKKYVKGDVSLCR | 3.25
PRYMEDPCKQCKKKYVKGDVSLCR | 2.61
PRYVEDPCKQCKKKYVKGDVSLCR | 2.77
PRYYEDPCKQCKKKYVKGDVSLCR | 2.66
PRYSEDPCKQCKKKYVKGDVSLCR | 2.78
PRYKEDPCKQCKKKYVKGDVSLCR | 2.79
PRYQEDPCKQCKKKYVKGDVSLCR | 2.79
PRYAEDPCKQCKKKYVKGDVSLCR | 3.38
PRYIEDPCKQCKKKYVKGDVSLCR | 2.67
PRYTEDPCKQCKKKYVKGDVSLCR | 2.97
PRYCEDPCKQCKKKYVKGDVSLCR | 2.94
PRYLEDPCKQCKKKYVKGDVSLCR | 2.89
PRYREDPDKQCKKKYVKGDVSLCR | 4.16
PRYREDPAKQCKKKYVKGDVSLCR | 4.08
PRYREDPEKQCKKKYVKGDVSLCR | 4.06
PRYRNDPCKQCKKKYVKGDVSLCR | 2.58
PRYRMDPCKQCKKKYVKGDVSLCR | 2.66

Variant | protein stability index
PRYRRDPCKQCKKKYVKGDVSLCR | 2.8
PRYRIDPCKQCKKKYVKGDVSLCR | 2.46
PRYRGDPCKQCKKKYVKGDVSLCR | 2.68
PRYRFDPCKQCKKKYVKGDVSLCR | 2.57
PRYRVDPCKQCKKKYVKGDVSLCR | 2.83
PRYRPDPCKQCKKKYVKGDVSLCR | 2.77
PRYRKDPCKQCKKKYVKGDVSLCR | 3.27
PRYRYDPCKQCKKKYVKGDVSLCR | 2.51
PRYRDDPCKQCKKKYVKGDVSLCR | 2.94
PRYRQDPCKQCKKKYVKGDVSLCR | 2.83
PRYRHDPCKQCKKKYVKGDVSLCR | 2.76
PRYRADPCKQCKKKYVKGDVSLCR | 2.66
PRYRTDPCKQCKKKYVKGDVSLCR | 2.67
PRYRSDPCKQCKKKYVKGDVSLCR | 2.58
PRYRWDPCKQCKKKYVKGDVSLCR | 2.33
PRYRCDPCKQCKKKYVKGDVSLCR | 2.7
PRYRLDPCKQCKKKYVKGDVSLCR | 2.78
PTYREDPCKQCKKKYVKGDVSLCR | 2
PPYREDPCKQCKKKYVKGDVSLCR | 2.75
PDYREDPCKQCKKKYVKGDVSLCR | 3.03
PCYREDPCKQCKKKYVKGDVSLCR | 2.41
PLYREDPCKQCKKKYVKGDVSLCR | 2.76
PNYREDPCKQCKKKYVKGDVSLCR | 2.85
PIYREDPCKQCKKKYVKGDVSLCR | 2.98

Variant | protein stability index
PAYREDPCKQCKKKYVKGDVSLCR | 2.96
PHYREDPCKQCKKKYVKGDVSLCR | 2.86
PFYREDPCKQCKKKYVKGDVSLCR | 2.66
PKYREDPCKQCKKKYVKGDVSLCR | 2.52
PQYREDPCKQCKKKYVKGDVSLCR | 3
PGYREDPCKQCKKKYVKGDVSLCR | 3.47
PSYREDPCKQCKKKYVKGDVSLCR | 3.03
PYYREDPCKQCKKKYVKGDVSLCR | 2.64
PWYREDPCKQCKKKYVKGDVSLCR | 3.25
PVYREDPCKQCKKKYVKGDVSLCR | 2.98
PEYREDPCKQCKKKYVKGDVSLCR | 2.97
PMYREDPCKQCKKKYVKGDVSLCR | 2.49
PRKREDPCKQCKKKYVKGDVSLCR | 2.63
PRTREDPCKQCKKKYVKGDVSLCR | 2.65
PRCREDPCKQCKKKYVKGDVSLCR | 2.77
PRFREDPCKQCKKKYVKGDVSLCR | 2.93
PREREDPCKQCKKKYVKGDVSLCR | 4
PRQREDPCKQCKKKYVKGDVSLCR | 2.74
PRNREDPCKQCKKKYVKGDVSLCR | 2.84
PRPREDPCKQCKKKYVKGDVSLCR | 3.07
PRRREDPCKQCKKKYVKGDVSLCR | 3.24
PRIREDPCKQCKKKYVKGDVSLCR | 2.76
PRMREDPCKQCKKKYVKGDVSLCR | 2.56
PRAREDPCKQCKKKYVKGDVSLCR | 3.39

Variant | protein stability index
PRDREDPCKQCKKKYVKGDVSLCR | 2.82
PRHREDPCKQCKKKYVKGDVSLCR | 2.67
PRWREDPCKQCKKKYVKGDVSLCR | 2.55
PRGREDPCKQCKKKYVKGDVSLCR | 3.39
PRSREDPCKQCKKKYVKGDVSLCR | 2.8
PRLREDPCKQCKKKYVKGDVSLCR | 2.73
PRVREDPCKQCKKKYVKGDVSLCR | 2.28
PRYREGPCKQCKKKYVKGDVSLCR | 2.48
PRYREWPCKQCKKKYVKGDVSLCR | 1.98
PRYREHPCKQCKKKYVKGDVSLCR | 2.61
PRYREMPCKQCKKKYVKGDVSLCR | 2.92
PRYREAPCKQCKKKYVKGDVSLCR | 2.46
PRYRERPCKQCKKKYVKGDVSLCR | 3.19
PRYREIPCKQCKKKYVKGDVSLCR | 2.21
PRYREKPCKQCKKKYVKGDVSLCR | 3.06
PRYREQPCKQCKKKYVKGDVSLCR | 3.71
PRYREVPCKQCKKKYVKGDVSLCR | 2.58
PRYRENPCKQCKKKYVKGDVSLCR | 1.92
PRYRETPCKQCKKKYVKGDVSLCR | 2.61
PRYREFPCKQCKKKYVKGDVSLCR | 2.35
PRYREEPCKQCKKKYVKGDVSLCR | 3.14
PRYRELPCKQCKKKYVKGDVSLCR | 2.15
